From patent publication US20220380459A1 (DRAGONFLY THERAPEUTICS, published 2022)

B1: ADI-11801 IgG (antibody, V domains shown)
VH: QVQLVQSGAEVKKPGASVKVSCKASGYTFSDYYMHWVRQAPGQGLEWMGMINPSWGSTSYAQKFQGRVTMTRDTSTSTVYMELSSLRSEDTAVYYCAREAADGFVGERYFDLWGRGTLVTVSS
VL: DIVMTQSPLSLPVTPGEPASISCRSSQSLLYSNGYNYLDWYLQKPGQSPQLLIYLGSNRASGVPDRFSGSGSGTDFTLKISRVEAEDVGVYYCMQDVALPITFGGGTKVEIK
notes: IgG; also called Ab4
B2: ADI-10173 IgG (antibody, V domains shown)
VH: QVQLVQSGAEVKKPGASVKVSCKASGYTFTSYYMHWVRQAPGQGLEWMGIINPSGGSTTYAQKFQGRVTMTRDTSTSTVYMELSSLRSEDTAVYYCAREAADGFVGERYFDLWGRGTLVTVSS
VL: not shown
notes: IgG; also called Ab22
B3: ADI-11802 IgG (antibody, V domains shown)
VH: QVQLVQSGAEVKKPGASVKVSCKASGYTFSGYYMHWVRQAPGQGLEWMGMINPYGGSTRYAQKFQGRVTMTRDTSTSTVYMELSSLRSEDTAVYYCAREAADGFVGERYFDLWGRGTLVTVSS
VL: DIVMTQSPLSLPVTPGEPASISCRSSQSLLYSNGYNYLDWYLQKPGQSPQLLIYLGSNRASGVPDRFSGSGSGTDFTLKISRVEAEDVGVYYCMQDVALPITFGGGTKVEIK
notes: IgG; also called Ab23
B4: ADI-10159 IgG (antibody, V domains shown)
VH: EVQLVESGGGLVQPGGSLRLSCAASGFTFSSYGMSWVRQAPGKGLEWVANIKQDGSEKYYVDSVKGRFTISRDNAKNSLYLQMNSLRAEDTAVYYCAREGGPYYDSSGYFVYYGMDVWGQGTTVTVSS
VL: DIQMTQSPSTLSASVGDRVTITCRASQSISSWLAWYQQKPGKAPKLLIYDASSLESGVPSRFSGSGSGTEFTLTISSLQPDDFATYYCQQYESFPTFGGGTKVEIK
notes: IgG; also called Ab1; G59
B5: ADI-11776 IgG (antibody, V domains shown)
VH: EVQLLESGGGLVQPGGSLRLSCAASGFTFSKYTMSWVRQAPGKGLEWVSAIVGSGESTYFADSVKGRFTISRDNSKNTLYLQMNSLRAEDTAVYYCAREGGPYYDSSGYFVYYGMDVWGQGTTVTVSS
VL: DIQMTQSPSTLSASVGDRVTITCRASQSISSWLAWYQQKPGKAPKLLIYKASSLESGVPSRFSGSGSGTEFTLTISSLQPDDFATYYCQQYDDLPTFGGGTKVEIK
notes: IgG; also called Ab3; H76
B6: ADI-11819 IgG (antibody, V domains shown)
VH: EVQLVESGGGLVKPGGSLRLSCAASGFTFSSYAMSWVRQAPGKGLEWVSSISSSSEGIYYADSVKGRFTISRDNAKNSLYLQMNSLRAEDTAVYYCAREGGPYYDSSGYFVYYGMDVWGQGTTVTVSS
VL: DIQMTQSPSTLSASVGDRVTITCRASNSISSWLAWYQQKPGKAPKLLIYEASSTKSGVPSRFSGSGSGTEFTLTISSLQPDDFATYYCQQYDDLPTFGGGTKVEIK
notes: IgG; also called Ab8
B7: ADI-10164 IgG (antibody, V domains shown)
VH: QVQLQESGPGLVKPSETLSLTCAVSGYSISSGYYWGWIRQPPGKGLEWIGSIYHSGSTNYNPSLKSRVTISVDTSKNQFSLKLSSVTAADTAVYYCARLPPWFGFSYFDLWGRGTLVTVSS
VL: EIVLTQSPATLSLSPGERATLSCRASQSVSSYLAWYQQKPGQAPRLLIYDASNRATGIPARFSGSGSGTDFTLTISSLEPEDFAVYYCQQVDNYPPTFGGGTKVEIK
notes: IgG; also called Ab18
B8: ADI-11835 IgG (antibody, V domains shown)
VH: QLQLQESGPGLVKPSETLSLTCTVSGGSISSTDYYWGWIRQPPGKGLEWIGSIGYSGTYYNPSLKSRVTISVDTSKNQFSLKLSSVTAADTAVYYCARETAHDVHGMDVWGQGTTVTVSS
VL: EIVLTQSPATLSLSPGERATLSCRASHSVYSYLAWYQQKPGQAPRLLIYDASNRATGIPARFSGSGSGTDFTLTISSLEPEDFAVYYCQQYDNLPTFGGGTKVEIK
notes: IgG; also called Ab10; I35
B9: ADI-11828 IgG (antibody, V domains shown)
VH: EVQLVESGGGLVQPGGSLRLSCAASGFTFSSYWMSWVRQAPGKGLEWVANINQDGSEVYYVDSVKGRFTISRDNAKNSLYLQMNSLRAEDTAVYYCARDVGPGIAYQGHFDYWGQGTLVTVSS
VL: DIQMTQSPSSLSASVGDRVTITCRASQSIYYYLNWYQQKPGKAPKLLIYAASSRQSGVPSRFSGSGSGTDFTLTISSLQPEDFATYYCQQVYDTPLTFGGGTKVEIK
notes: IgG; also called Ab27
B10: ADI-11826 IgG (antibody, V domains shown)
VH: EVQLVESGGGLVQPGGSLRLSCAASGFTFPGYWMSWVRQAPGKGLEWVANINQDGSEVYYVDSVKGRFTISRDNAKNSLYLQMNSLRAEDTAVYYCAREANYYGNVGDDYWGQGTLVTVSS
VL: DIQMTQSPSSLSASVGDRVTITCRASQSIYNYLNWYQQKPGKAPKLLIYAASSTQSGVPSRFSGSGSGTDFTLTISSLQPEDFATYYCQQAFHVPITFGGGTKVEIK
notes: IgG; also called Ab26
B11: ADI-10163 IgG (antibody, V domains shown)
VH: QVQLQESGPGLVKPSQTLSLTCTVSGGSISSGGYYWSWIRQHPGKGLEWIGSIYYSGSTYYNPSLKSRVTISVDTSKNQFSLKLSSVTAADTAVYYCARDRLDYSYNYGMDVWGQGTTVTVSS
VL: DIQMTQSPSSLSASVGDRVTITCRASQSISSYLNWYQQKPGKAPKLLIYGASSLQSGVPSRFSGSGSGTDFTLTISSLQPEDFATYYCQQVYSAPFTFGGGTKVEIK
notes: IgG; also called Ab17
B12: ADI-11825 IgG (antibody, V domains shown)
VH: EVQLVESGGGLVQPGGSLRLSCAASGFTFGGYWMSWVRQAPGKGLEWVANINQDGSEEYYVDSVKGRFTISRDNAKNSLYLQMNSLRAEDTAVYYCAREANYYGNVGDDYWGQGTLVTVSS
VL: DIQMTQSPSSLSASVGDRVTITCRASQSIYNYLNWYQQKPGKAPKLLIYAASNLHSGVPSRFSGSGSGTDFTLTISSLQPEDFATYYCQQAFHVPITFGGGTKVEIK
notes: IgG; also called Ab25
B13: ADI-10160 IgG (antibody, V domains shown)
VH: EVQLVESGGGLVQPGGSLRLSCAASGFTFSSYWMSWVRQAPGKGLEWVANINQDGSEKYYVDSVKGRFTISRDNAKNSLYLQMNSLRAEDTAVYYCAREANYYGNVGDDYWGQGTLVTVSS
VL: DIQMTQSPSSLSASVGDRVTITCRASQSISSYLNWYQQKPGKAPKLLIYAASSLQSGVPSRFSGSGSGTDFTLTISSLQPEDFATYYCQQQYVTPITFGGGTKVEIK
notes: IgG; also called Ab15
B14: ADI-11830 IgG (antibody, V domains shown)
VH: EVQLVESGGGLVQPGGSLRLSCAASGFTFSSYWMSWVRQAPGKGLEWVANINTDGSEVYYVDSVKGRFTISRDNAKNSLYLQMNSLRAEDTAVYYCARDVGPGIAYQGHFDYWGQGTLVTVSS
VL: DIQMTQSPSSLSASVGDRVTITCRASQVIYSYLNWYQQKPGKAPKLLIYAASSLKSGVPSRFSGSGSGTDFTLTISSLQPEDFATYYCQQVYDTPLTFGGGTKVEIK
notes: IgG; also called Ab9
B15: ADI-11807 IgG (antibody, V domains shown)
VH: EVQLVESGGGLVQPGGSLRLSCAASGFTFGSYWMSWVRQAPGKGLEWVATIKQDGSEKSYVDSVKGRFTISRDNAKNSLYLQMNSLRAEDTAVYYCARPLNAGELDVWGQGTMVTVSS
VL: DIQMTQSPSTLSASVGDRVTITCRASQSISSWLAWYQQKPGKAPKLLIYEASSLESGVPSRFSGSGSGTEFTLTISSLQPDDFATYYCQQSQSYPPITFGGGTKVEIK
notes: IgG; also called Ab5; I07
B16: ADI-11809 IgG (antibody, V domains shown)
VH: EVQLVESGGGLVQPGGSLRLSCAASGFTFPSYWMSWVRQAPGKGLEWVATIKRDGSEKGYVDSVKGRFTISRDNAKNSLYLQMNSLRAEDTAVYYCARPLNAGELDVWGQGTMVTVSS
VL: DIQMTQSPSTLSASVGDRVTITCRASQSISSWLAWYQQKPGKAPKLLIYEASSLESGVPSRFSGSGSGTEFTLTISSLQPDDFATYYCQQSQSYPPITFGGGTKVEIK
notes: IgG; also called Ab6
B17: ADI-10157 IgG (antibody, V domains shown)
VH: QVQLQESGPGLVKPSETLSLTCTVSGGSISSYYWSWIRQPPGKGLEWIGSIYYSGSTNYNPSLKSRVTISVDTSKNQFSLKLSSVTAADTAVYYCARVGGVYSTIETYGMDVWGQGTTVTVSS
VL: EIVMTQSPATLSVSPGERATLSCRASQSVSSNLAWYQQKPGQAPRLLIYGASTRATGIPARFSGSGSGTEFTLTISSLQSEDFAVYYCQQYTVYPPTFGGGTKVEIK
notes: IgG; also called Ab13
B18: ADI-11812 IgG (antibody, V domains shown)
VH: QVQLVQSGAEVKKPGASVKVSCKASGYTFEIYYMHWVRQAPGQGLEWMGIINPSSGSTVYAQKFQGRVTMTRDTSTSTVYMELSSLRSEDTAVYYCARGAGYDDEDMDVWGKGTTVTVSS
VL: DIQMTQSPSSVSASVGDRVTITCRASQGIDSWLAWYQQKPGKAPKLLIYAASSLQSGVPSRFSGSGSGTDFTLTISSLQPEDFATYYCQQAHSYPLTFGGGTKVEIK
notes: IgG; also called Ab24
B19: ADI-10177 IgG (antibody, V domains shown)
VH: EVQLVESGGGLVQPGGSLRLSCAASGFTFSSYWMSWVRQAPGKGLEWVANIKQDGSEKYYVDSVKGRFTISRDNAKNSLYLQMNSLRAEDTAVYYCARPLNAGELDVWGQGTMVTVSS
VL: DIQMTQSPSTLSASVGDRVTITCRASQSISSWLAWYQQKPGKAPKLLIYEASSLESGVPSRFSGSGSGTEFTLTISSLQPDDFATYYCQQLESYPLTFGGGTKVEIK
notes: IgG; also called Ab2
B20: ADI-10161 IgG (antibody, V domains shown)
VH: EVQLVESGGGLVQPGGSLRLSCAASGFTFSSYWMSWVRQAPGKGLEWVANINQDGSEKYYVDSVKGRFTISRDNAKNSLYLQMNSLRAEDTAVYYCAREGGDSWYHAFDIWGQGTMVTVSS
VL: DIQMTQSPSSVSASVGDRVTITCRASQGISSWLAWYQQKPGKAPKLLIYAASNLQSGVPSRFSGSGSGTDFTLTISSLQPEDFATYYCQQKLSLPLTFGGGTKVEIK
notes: IgG; also called Ab16
B21: ADI-11815 IgG (antibody, V domains shown)
VH: QVQLVQSGAEVKKPGASVKVSCKASGYTFGTYYMHWVRQAPGQGLEWMGIINPSRGSTVYAQKFQGRVTMTRDTSTSTVYMELSSLRSEDTAVYYCARGAGYDDEDMDVWGKGTTVTVSS
VL: DIQMTQSPSSVSASVGDRVTITCRASQGIDSWLAWYQQKPGKAPKLLIYAASSLQSGVPSRFSGSGSGTDFTLTISSLQPEDFATYYCQQAHSYPLTFGGGTKVEIK
notes: IgG; also called Ab7

These binders were tested against T1, human CD33 extracellular domain (human, UniProt P20138 18-259) (assay: BLI Octet, IgG loaded;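 note: IgGs captured on AHC biosensors, exposed to 100 nM antigen for 3 min association then 3 min dissociation in buffer, kinetics fitted with a 1:1 binding model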).
T1 construct: soluble monomeric ECD; also called human CD33 ECD; hCD33
Method: Briefly, ForteBio affinity measurements were performed by loading IgGs on-line onto AHC sensors. Sensors were equilibrated off-line in assay buffer for 30 min and then monitored on-line for 60 seconds for baseline establishment. Sensors with loaded IgGs were exposed to 100 nM antigen for 3 minutes, and afterwards were transferred to assay buffer for 3 min for off-rate measurement. All kinetics were analyzed using the 1:1 binding model.
A Kd of 0.457 nM, a koff of 0.0002 s⁻¹ and a kon of 438000 M⁻¹ s⁻¹ were found for B1 in this work.
A Kd of 9.7 nM was found for B2 in this work.
A Kd of 0.453 nM, a koff of 0.0002 s⁻¹ and a kon of 441000 M⁻¹ s⁻¹ were found for B3 in this work.
A Kd of at most 0.575 nM, a koff of at most 0.0002 s⁻¹ and a kon of 348000 M⁻¹ s⁻¹ were found for B4 in this work.
A Kd of 0.294 nM, a koff of 0.0002 s⁻¹ and a kon of 679000 M⁻¹ s⁻¹ were found for B5 in this work.
A Kd of 0.243 nM, a koff of 0.0002 s⁻¹ and a kon of 824000 M⁻¹ s⁻¹ were found for B6 in this work.
A Kd of 4.3 nM, a koff of 0.00148 s⁻¹ and a kon of 344000 M⁻¹ s⁻¹ were found for B7 in this work.
A Kd of 0.281 nM, a koff of 0.000237 s⁻¹ and a kon of 844000 M⁻¹ s⁻¹ were found for B8 in this work.
A Kd of 0.81 nM, a koff of 0.000533 s⁻¹ and a kon of 658000 M⁻¹ s⁻¹ were found for B9 in this work.
A Kd of 0.393 nM, a koff of 0.000243 s⁻¹ and a kon of 619000 M⁻¹ s⁻¹ were found for B10 in this work.
A Kd of 6.8 nM was found for B11 in this work.
A Kd of 0.54 nM, a koff of 0.000376 s⁻¹ and a kon of 696000 M⁻¹ s⁻¹ were found for B12 in this work.
A Kd of 5.1 nM, a koff of 0.00325 s⁻¹ and a kon of 638000 M⁻¹ s⁻¹ were found for B13 in this work.
A Kd of 1.2 nM, a koff of 0.000923 s⁻¹ and a kon of 770000 M⁻¹ s⁻¹ were found for B14 in this work.
A Kd of 0.307 nM, a koff of 0.0002 s⁻¹ and a kon of 651000 M⁻¹ s⁻¹ were found for B15 in this work.
A Kd of 0.313 nM, a koff of 0.0002 s⁻¹ and a kon of 638000 M⁻¹ s⁻¹ were found for B16 in this work.
A Kd of 4.2 nM, a koff of 0.000336 s⁻¹ and a kon of 79900 M⁻¹ s⁻¹ were found for B17 in this work.
A Kd of 1.91 nM, a koff of 0.000315 s⁻¹ and a kon of 166000 M⁻¹ s⁻¹ were found for B18 in this work.
A Kd of 3.6 nM, a koff of 0.00214 s⁻¹ and a kon of 601000 M⁻¹ s⁻¹ were found for B19 in this work.
A Kd of 3.7 nM, a koff of 0.00217 s⁻¹ and a kon of 587000 M⁻¹ s⁻¹ were found for B20 in this work.
A Kd of 1.44 nM, a koff of 0.000229 s⁻¹ and a kon of 159000 M⁻¹ s⁻¹ were found for B21 in this work.
